# Laboratory results from the nanobody polyreactivity screen of Harvey et al. (2022).
# Test: yeast display, Sf9 membrane polyspecificity reagent, FACS + sequencing; frameworks hold sequencing errors
# Outline: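 Sorting gates, low and high (top ~1%), were placed on anti-HA fluorescence to track expression and on streptavidin fluorescence to track reagent binding. A clone's polyreactivity label is taken from the gate it came out of. The reagent was 10% biotinylated, detergent-solubilized Sf9 membrane, applied for 1 hour at 4 °C to galactose-induced yeast display cells.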
row,Sequence,polyreactivity (PSR sort gate)
1,QVQLVESGRGLVQAGGSLRLSCAASGSIFRGNAMGWYRQAPGKERELVAAMTKRGGSTYYADSGKGRFTISRDNAKNTDKFQMNSLKPEDTAVYYFAAKPSYRYYKSYDYWGQGTQVTVSS,high polyreactivity
2,QVQLVESGGGLVQAGGSLRLSCAASGRIFTSYAMGWYRQAPGKEREFVAAITRRGGSTYYADSVKGRFTISRDNAKNTVYLQMKSLKQEDTAVYYCAADIYSVPYPSWARYDYWGQGTQVTVSS,high polyreactivity
3,QVQLVESGGGLVQAGGSLRLSCAASGSTFAYYAMGWYRQAPGKERELVASISWRGGSTYYAESVKGRFTISRDNAKNTVYLQMNSLKPEDTAVYYCAAGRFYTWSRSQEYDYWGQGTQVTVSS,low polyreactivity
4,QVQLVESGGGLVQAGGSLRLSCAASGLIFTGNVMGWYRQAPGKERELVAAISRSGGRTYYADSVKGRFTISRDNAKNTVYLQMNSLKPEDTAVYYCNKVSPERVYYGSYFRYYYWGQGTQVTVSS,high polyreactivity
5,QVQLVESGGGLVHAGGSLRLSCAASGRTFYANAMGWYRQAPGKERELVAAISSRSGTTHYADSEKGRFTISRDNAKNSVYLQMNSLKPEETAVYYCAVRYYRRRYDYWGQGTQVTVSS,low polyreactivity
6,QVQLVESGGGLVQAGGSLRLSCAPSGITLDSNAMGWYRQARGKERELVAAINWSTGSTYYADSVKGRFTISRDNAKNTVYLQMNSLKPEDTAVYYCAVDYRYGYFVYVHYEYWGQGTQETVSS,high polyreactivity
7,QVQLVESGGGLLQAGGSLRLSCAASGSTFWFYAMGWYRQAPGKERELVDVISNSGSTYYADSEKGRFTISRDNAKNTVYLQMNSLKPEDTAVYNCAADGFYYPNWGRFSYYYWGQGTLVTVSS,low polyreactivity
8,QVQLVDSGGGLVQAGGSLRLSCAASGSTFRRNAMGWYRHAPGKERELVAAINRRGGDTYYADSVKGRFTISCDNAKNTVYLQMNSLKPEDTAVYYCAAEWQSVAFDWGGYGDDYWGQGTQVTVSS,low polyreactivity
9,QVQLVESGGGLVQAGGSLRLSCAASGRIFYVYAMGWYRQAPGKERELVAAITQSGGRTYYADSVKGRFTISRDNAKNTVYLQMNSLKPEDTAVYYCAATWLGSRNLVHITLYYWGQGTQVTVSS,low polyreactivity
10,QVQLVESGGGLVQAGGSLRLSCASSGSIFQYYVMGWYRPAPGKERELVAAMRRSGTTYYADSVKGRFTISRDNAKHTLDLQMNSLKPEDTAVYYCNKVRGQEPSNYDYWGQGTQVTVSS,low polyreactivity
11,QVQIVESGGGLVQAGGSLRLSCAASGSTFARNAMGWYRQAPGKEREFVASIRWGGVSTYYADSVKGRFTISRDNAKNTVYLQMNSLKPEDTAVYYCATGRKNAAQRWGYYYWGQGTQVTVSS,high polyreactivity
12,QVQLVESGGGLVQAGGSLRLRCAASGSNFVSYAMGSYRQAPGKERELVATITTSTGSTYADSVKGRFTISRDNAKNTVYLLMYSLKPEDTAVYYCAARYLPWLKYDFDSWGQGTQVTVSS,low polyreactivity
13,QVQLVESGGGLVQAGGSLRLSCAASGYIFSINAMGWYRQAPGKERELVAAITSSGGSTYYADSVKGRFTISRDNAKNTVYLQMNSLKPEDTAVYYCNAYVRRTRDYDYWGQGTQVTVSS,high polyreactivity
14,QVQLVESGGGLVQAGGSLRLSCAASGRTFNLYAMGWYRQAPGKERELVAAIRYSDTSTYYADSVKGRFTISRDNAKNTVYLQMNSVKPEDTAVYYCAAYPGYKGGNYGYWGQGTKVTVSS,low polyreactivity
15,QVQLVESGGGLVQAGGSLRLSCAASGFTFDYNAMGWYRQAPGKEREFVAAISSNGGSTYYADSVKGRFTISRDNAKNTVYFQMNSLKPEDTAVYYCAARYRSFVYWYGYWGQGTQVTVSS,high polyreactivity
16,QVQLVESGGGLVQAGGSLRLSCAASGRIFGHYAMGWYIQAPGKERELVAAISRGGSTNYADSVKGRFTISRDNAKNTVYLQINSLKPVDNAVYYCNAAYSDYEYDYWGQGTQVSVSS,low polyreactivity
17,QVQLVESGVGLVQAGGSLRLSSAASGIIFVSNAMRWYRQAPGKERELVATINWSDDSTYYADSVKGRFTISRDNAKKTVSLQMNSLKADYTAVYYCYCGQGTQVTVSS,low polyreactivity
18,QVQLVESGGGLVQAGGSLSLSCAASGRTFKYYTMGWYRQAPGKERELVAAISASGGSTYYADSVKGRFTISRDNAKNTVYLQMNSLKPEDTAVYYCAKGANRAIHKQPTRSRLDSWGQGTQVTVSS,high polyreactivity
19,QVQLVESCGGLVQAGGSLRLSCAASGRIFSDYAMGWYRQAPGKERELVATITSGDSTNYADSVKGRFTISRDNAKNTVYLQMNSLKPEDTAVYYCNADRFADYDYWGQGTQVTVSS,low polyreactivity
20,QVQLVESGGGLVQAGGSLRLSCAASGIIFAQYAMGWYRQAPGKERELVAAISWSGGSTYYADSVKGRFTISRDNAKNTVYLQMNSLKPEDTAVYYCAADGYYGYYSQYEYLYYYWGQGTQVTVSS,high polyreactivity
21,QVQLVESGGGLVQAGGSLRLSCAASGLFFYAYSMGWYRQAPAKERELVAAISGSGGNTYYADSVKGRFTISRDNAKNSVYLQMNSLKQEDTAVYYCAADYTAAYPDSMYYWGQGTQVTVSS,low polyreactivity
22,QVQLVESGGGLVQAGGSLRLICAASGSIFYVYAMGWYRQSPGKERELDAAINTSGGSTFYADSVKGRFTISRDNAKNTVYLQMNSLKPEDTAVYYCAAERYRYRSTDTMGYWGQGTQVTVSS,low polyreactivity

row,Sequence,polyreactivity (PSR sort gate)
1,QVQLVESGGGLVQAGGRLRLSCAASGSISWVYAMGWYRQAPGTERELVADITDSGDSTYYADSVKGRFTISRDNAKNTVYLQMHSLKPEDTAVYYSAAPGSRHYYIYWPYNYWGQGTQVTVSS,low polyreactivity
2,QVQLVESGGGLVQAGGSLRLSCAASGSIFQPYAMGWYRQAPGKERELVAAITNGGSTYYADSVKGRFTISRDNAKNTVYLQMNSLKPEDTAVYYCAADVQSSHEYDYWGQGTQVTVSS,low polyreactivity
3,QVQLVESGGGLVQAGGSLRLSCAASGSLFKYYAMGWYRQAPGKERELVAAITIGGNTNYADSVKGRFTISRDNAKNTVYLQMNSLKPEDTAVYYCATGGYYSAIVYGGYDYWGQGTQVTVSS,low polyreactivity
4,QVQLVESGGGLVQAGGSLRLSCAASGITLFYYAMGWYRQAPGKERELVAAISWSGGSTYYADSVKGRFTISRDNAKNTDDLQMNSLKPEDTAVYYCNRVSRAPFDYWGQATQVTVSS,high polyreactivity
5,QVKLVESGGGLDQAGGSLRLSCAASGTIFRKNAMGWYRQAPGKERELVAAMTGTGRTTYADSVKGRFTISRDNAKNTFYLQMNSLKPEDTAVYYCAADVNYYQHRLYYWGQGTQVTVSS,low polyreactivity
6,QVQLVESGGCLVQAGGSLRLSCAASGSTFLINAMGWYRQAPGKEREFVASIRYRGATTYADSVKGRFTISRDNAKNTVYLQMNTLKPEDTAVYYCAASIWLRYHWGYDYWGQGTQVTVSS,high polyreactivity
7,QVQLVESGGGLVQAGGSLRLSCAASGRTFRYYAMGWYRQAPGKERELVAAISWSGSSTYYADSVKGRFTISRDNAKNTVYLQMNSLKAEDTAVYFCNAKGVRGKYFDYSRVSAYDYWGQGTQVTVSS,low polyreactivity
8,QVQLVESGGGLVQAGGSLRLSYAASGRTFYRYAMGWYRQAPGKERELVAVITSGSRTKYADSVKGRFTISRDNAKNTVYLQMNSLKPEDTAFYYCAARGLALEGKSSGEYWGQGTQVTVSS,high polyreactivity
9,QVQLVESGGGLVQAGGSLRLSCAASGSTFTGYAMGWYRQAPGKERELVAGISVTGGNTYYADSVKGRFTISRDNAKKTVYLQMNSLKPEDTAVYYCNAVVLSYYAGEMDYWGQGTQVTVSS,low polyreactivity
10,QVQLVESGGGLVQAGGSLRLSCAASGRTFFKYDMGWYRQAPAKERELVAAITWTGGSTYYADSVKGRFTISRDYAKNTVYLQMNSLKPEDTAVYYCAAADYYYVEYDYWGQGTQVTVSS,low polyreactivity
11,QVQLVESGGGLVQAGGSLRLSCAASGSTIGPYAMGWYRQAPGKERELVAAITESGDSTYYADSVKGRFTISRDTAKNTVYLQMNSLKPEDTAVYYCAADVYGDKMDYWGQGTQVTVSS,low polyreactivity
12,QVQLVESGGGLVQAGGSLRLSCAASGSTFQTYAMGWYRQAPGKERELVAAITSGGSTNYADSVKGRFTISRDNAKNTVYLQMNSLKPEETAVYYCAVRQIYQTSDHRLQYDYWGQGTQVSVSS,low polyreactivity
13,QVQLVESGGGLVQAGGSLRLSCAASGITFYYYAMGWYRQAPGKERELVARISYGGGRTYYADSVKGRFTISRDNAKNTVYLQMNSLKPEDTAVYYCAARQGYRSYRRYDYWGQGTQVTVSS,high polyreactivity
14,QVQLVESGGGLVQAGGSLRLSCAASGRIFPRNAMGWYRQAPGQERELVAAITKSGGSTYYADSVKGRFTISRDNAKNTVYLQMNSLKPEDTAVYYCNAVQYRNYYWGQGTQVTVSS,high polyreactivity
15,QVQLVESGGGLVQAGGSLRLSCAASGSIFVTYAMGWYRQAPGKERELVATITSSGGSTYYADSVKGRFTISRDNAKNTVYLQMNSLKPEDTAVYYCATDFGASVWDYFRRVYYWFGYWGQGTQVTVSS,low polyreactivity
16,QVQLVESGGGLVQAGGSLRLSCAASGSTFRKYAMGWYRQAPGKEREFVAAITWSTGTTYYADSVKGRFTISRDNAKNNVYLQMNSLKPEDTAVYYSAADSQPPHELDESIEHESWGQGTQVTVSS,low polyreactivity
17,QVQLVESGGGLVQAGGSLRLSCAASGRIFKYYAMGWYRQAPGTERELVAAITSGGSTYYADSVKGRFTISRDNAKNTVYLQMNSLKPEDTAVYYCNADGYLSYAFDYWGQGTQVTVSS,low polyreactivity
18,QVQLVESGGGLVQAGGSRRLSCAASGISFGSYVMGWYRQAPGKERELVAAISWSGGSTNYADSVKGRFTISRDNSKNTVYLQMNILKPEDTAVFYCAAEYDVYGYYYWGQGTQVTVSS,high polyreactivity
19,QVQLVESGGGLVQAGGSLRLSCAASGFIINGNDMGWYRQAPGKERELVAAISSSGGSTYYADSVKGRFTISRDNAKNTVYLQMNSRTPEDSAVYYCARRGKQVSGRYYYWGQGTQVSVSS,high polyreactivity
20,QVQLVESGGVLVQAGGSLRLSCAASGSTFVRNAMGWYRQAPGKEWELVAAITGTGDSTYYADSVKGRFTISRDNAKNTVYLQMNSLKPEDTAVYYCAANSDAYRYWYDYWGQGTQVTVSS,low polyreactivity
21,QDQLVESGGGLVQAGGSLRLSCAASGSIFAYYVMGWYRQAPGKERELVAAISKSGGSTYYADSVQGRFTISRDNAKNTVYVQRNSLKPEDPAVYYCAAPQRYPRFYYWGQGTQVTVSS,high polyreactivity
